Molecular target: PSII-LHCII supercomplexes of sucrose gradient band α3 (α3G with glutaraldehyde) (pea (Pisum sativum L., endogenous in leaves)) (UniProt P06585)

PSII-LHCII supercomplexes of sucrose gradient band α3 (α3G with glutaraldehyde) (from UniProt P06585 1-344; P06006 1-353; P06004 15-473; P14226 82-329; P27520 38-265)
fast chlorophyll a fluorescence induction (OJIP), O–J curvature parameter C; control (sucrose gradient buffer with cations, paired): 0.35
fast chlorophyll a fluorescence induction (OJIP), O–J curvature parameter C; no salts (salt-free buffer, unpaired): 0.14
fast chlorophyll a fluorescence induction (OJIP), connectivity among PSII units parameter p; control (sucrose gradient buffer with cations, paired): 0.3
fast chlorophyll a fluorescence induction (OJIP), connectivity among PSII units parameter p; no salts (salt-free buffer, unpaired): 0.13
fast chlorophyll a fluorescence induction (OJIP), overall grouping probability p2G; control (sucrose gradient buffer with cations, paired): 0.21
fast chlorophyll a fluorescence induction (OJIP), overall grouping probability p2G; no salts (salt-free buffer, unpaired): 0.15
fast chlorophyll a fluorescence induction (OJIP), probability of connectivity between PSII units ω; control (sucrose gradient buffer with cations, paired): 0.2
fast chlorophyll a fluorescence induction (OJIP), probability of connectivity between PSII units ω; no salts (salt-free buffer, unpaired): 0.06

Reference: paper PMC5577252
